Source: US20210047402A1 (TENEOBIO, published 2021)

B1: anti-CD22 heavy chain-only antibody Clone ID 335173 (antibody, V domains shown)
VH: QLQLQESGPGLVKPSETLSLTCTVSGGSITSSSYYWGWIRQPPGKGLEWIGSIYYSGSTYYNPSLKSRVTISVDTSKNQFSLKLSSVTAADTAVYYCTRDDSSNWRSRGQGTLVTVSS
notes: Heavy chain-only antibody (UniAb), no light chain
B2: anti-CD22 heavy chain-only antibody Clone ID 335195 (antibody, V domains shown)
VH: QLQLQESGPGLVKPSETLSLTCTVSGGSISSSSYYWGWIRQPPGKGLEWIGSIYYSGATYYNPSLKNRVTISVDTSRNQFSLNLSSVTAADTAMYYCTREDSSNWRSRGQGTLVTVSS
notes: as for B1
B3: anti-CD22 heavy chain-only antibody Clone ID 335236 (antibody, V domains shown)
VH: QLQLQESGPGLVKPSETLSLTCTVSGGSISSSSYYWGWIRQPPGKGLEWIGSIYYSGSTYYNPSLKSRVTISVDTSKNQFSLKLSSVTAADTAVYYCTREDSSNWRSRGQGTLVTVSS
notes: as for B1
B4: anti-CD22 heavy chain-only antibody Clone ID 335245 (antibody, V domains shown)
VH: QLQLQESGPGLVKPSETLSLTCTVSGDSISSGDYYWGWIRQPPGKGLEWIGHIYYSGATYYNPSLKNRVTISVDTSKNQFSLKLSSVTAADTAVYYCTREDSSSWRSRGQGTLVTVSS
notes: as for B1
B5: anti-CD22 heavy chain-only antibody Clone ID 335187 (antibody, V domains shown)
VH: QLQLQESGPGLVKPSETLSLTCTVSGGSISSSSYYWGWIRQPPGKGLEWIGHIYYSGATYYNPSLKNRVTISVDTSKNQFSLKLSSVTAADTAVYYCTRDDSSNWRSRGQGTLVTVSS
notes: as for B1
B6: anti-CD22 heavy chain-only antibody Clone ID 335224 (antibody, V domains shown)
VH: QLQLQESGPGLVKPSETLSLTCTVSGDSISSGDYYWGWIRQPPGKGLEWIGSIYYTGSTYYNPSLKSRVTISVDTSKNQFSLKLSSVTAADTAVYYCTREDSSNWRSRGQGTLVTVSS
notes: as for B1
B7: anti-CD22 heavy chain-only antibody Clone ID 335208 (antibody, V domains shown)
VH: QLQLQESGPGLVKPSETLSLTCTVSGGSISSSSYYWGWIRQPPGKGLEWIGSIYYSGATYYNPSLKNRVTISVDTSRNQFSLNLSSVTAADTAVYYCTREDSSNWRSRGQGTLVTVSS
notes: as for B1
B8: anti-CD22 heavy chain-only antibody Clone ID 335210 (antibody, V domains shown)
VH: QLQLQESGPGLVKPSETLSLTCTVSGGSISSGDYYWGWIRQPPGKGLEWIGHIYYSGATYYNPSLKNRVTISVDTSRNQFSLKLSSVTAADTAVYYCTREDSSNWRSRGQGTLVTVSS
notes: as for B1
B9: anti-CD22 heavy chain-only antibody Clone ID 335218 (antibody, V domains shown)
VH: QLQLQESGPGLVKPSETLSLTCTVSGDSISSGDYYWGWIRQPPGKGLEWIGHIYYSGATYYNPSLKNRVTISVDTSRNQFSLKLSSVTAADTAVYYCTREDSSNWRSRGQGTLVTVSS
notes: as for B1
B10: anti-CD22 heavy chain-only antibody Clone ID 335219 (antibody, V domains shown)
VH: QLQLQESGPGLVKPSETLSLTCTVSGGSISSSSYYWGWIRQPPGKGLEWIGSIYYSGVTYYNPSLKNRVTISVDTSKNQFSLKLSSVTAADTAVYYCTREDSSNWRSRGQGTLVTVSS
notes: as for B1
B11: anti-CD22 heavy chain-only antibody Clone ID 335203 (antibody, V domains shown)
VH: QLQLQESGPGLVKPSETLSLTCTVSGDSISSGDYYWGWIRQPPGKGLEWIGHIYYSGVTYYNPSLKNRVTISVDTSKNQFSLKLSSVTAADTAVYYCTREDSSNWRSRGQGTLVTVSS
notes: as for B1
B12: anti-CD22 heavy chain-only antibody Clone ID 335185 (antibody, V domains shown)
VH: QLQLQESGPGLVKPSETLSLTCTVSGDSISSGDYYWGWIRQPPGKGLEWIGHIYYSGATYYNPSLKNRVTISVDTSRNQFSLNLSSVTAADTAVYYCTREDSSNWRSRGQGTLVTVSS
notes: as for B1
B13: anti-CD22 heavy chain-only antibody Clone ID 335181 (antibody, V domains shown)
VH: QLQLQESGPGLVKPSETLSLTCTVSGDSISSGGYYWGWIRQPPGKGLEWIGHIYYSGATYYNPSLKNRVTISVDTSKNQFSLKLSSVTAADTAVYYCTRDDSSNWRSRGQGTLVTVSS
notes: as for B1
B14: anti-CD22 heavy chain-only antibody Clone ID 335176 (antibody, V domains shown)
VH: QLQLQESGPGLVKPSETLSLTCTVSGDSISSGDYYWGWIRQPPGKGLEWIGHIYYSGATYYNPSLKNRVTISVDTSKNQFSLKLSSVTAADTAVYYCTRDDSSNWRSRGQGTLVTVSS
notes: as for B1
B15: anti-CD22 heavy chain-only antibody Clone ID 335188 (antibody, V domains shown)
VH: QLQLQESGPGLVKPSETLSLTCTVSGGSISSSSYYWGWIRQPPGKGLEWIGHIYYSGVTYYNPSLKNRVTISVDTSKNQFSLKLSSVTAADTAVYYCTRDDSSNWRSRGQGTLVTVSS
notes: as for B1
B16: anti-CD22 heavy chain-only antibody Clone ID 335189 (antibody, V domains shown)
VH: QLQLQESGPGLVKPSETLSLTCTVSGGSISSSSYYWGWIRQPPGKGLEWIGSVYYTGATYYNPSLKNRVTISVDTSKNQFSLKLSSVTAADTAVYYCTRDDSSNWRSRGQGTLVTVSS
notes: as for B1
B17: anti-CD22 heavy chain-only antibody Clone ID 335230 (antibody, V domains shown)
VH: QLQLQESDPGLVKPSETLSLTCTVSGGSISSSSHYWGWIRQPPGKGLEWIGHIYYSGATYYNPSLKNRVTISVDTSRNQFSLNLSSVTAADTAVYYCTREDSSNWRSRGQGTLVTVSS
notes: as for B1
B18: anti-CD22 heavy chain-only antibody Clone ID 335201 (antibody, V domains shown)
VH: QLQLQESGPGLVKPSETLSLTCTVSGDSISSGDYYWGWIRQPPGKGLEWIGHIYYSGVTYYNPSLKNRVTISVDTSRNQFSLKLSSVTAADTAVYYCTREDSSNWRSRGQGTLVTVSS
notes: as for B1
B19: anti-CD22 heavy chain-only antibody Clone ID 335207 (antibody, V domains shown)
VH: QLQLQESGPGLVKPSETLSLTCTVSGDSISSGDYYWGWIRQPPGKGLEWIGHIYYSGVTYYNPSLKSRVTISVDTSRNQFSLKLSSVTAADTAVYYCTREDSSNWRSRGQGTLVTVSS
notes: as for B1
B20: anti-CD22 heavy chain-only antibody Clone ID 335220 (antibody, V domains shown)
VH: QLQLQESGPGLVKPSETLSLTCTVSGGSISSSSYYWGWIRQPPGKGLEWIGSIYYSGSTYYNPSLKNRVTISVDTSKNQFSLKLSSVTAADTAVYYCTREDSSNWRSRGQGTLVTVSS
notes: as for B1
B21: anti-CD22 heavy chain-only antibody Clone ID 335254 (antibody, V domains shown)
VH: QLQLQESGPGLVKPSETLSLTCTVSGDSISSGDYYWGWIRQPPGKGLEWIGHIYYSGVTYYNPSLKNRVTISVDTSKNQFSLKLSSVTAADTAVYYCTREDSSSWRSRGQGTLVTVSS
notes: as for B1
B22: anti-CD22 heavy chain-only antibody Clone ID 335226 (antibody, V domains shown)
VH: QLQLQESGPGLVKPSETLSLTCTVSGDSISSSSYYWGWIRQPPGKGLEWIGSIYYSGSTYYNPSLKSRVTISVDTSKNQFSLKLSSVTAADTAVYYCTREDSSNWRSRGQGTLVTVSS
notes: as for B1
B23: anti-CD22 heavy chain-only antibody Clone ID 335260 (antibody, V domains shown)
VH: QLQLQESGPGLVKPSETLSLTCTVSGDSISSGDYYWGWIRQPPGKGLEWIGHIYYSGVTYYNPSLKNRVTISVDTSRNQFSLNLSSVTAADTAVYYCTREDSSSWRSRGQGTLVTVSS
notes: as for B1
B24: anti-CD22 heavy chain-only antibody Clone ID 335242 (antibody, V domains shown)
VH: QLQLQESGPGLVKPSETLSLTCTVSGGSISSSSYYWGWIRQPPGKGLEWIGHIYYSGATYYNPSLKNRVTISVDTSRNQFSLNLSSVTAADTAVYYCTREDSSNWRSRGQGTLVTVSS
notes: as for B1
B25: anti-CD22 heavy chain-only antibody Clone ID 335182 (antibody, V domains shown)
VH: QLQLQESGPGLVKPSETLSLTCTVSGDSISSGDYYWGWIRQPPGKGLEWIGNIYYSGATYYNPSLKNRVTISVDTSKNQFSLKLSSVTAADTAVYYCTRDDSSNWRSRGQGTLVTVSS
notes: as for B1
B26: anti-CD22 heavy chain-only antibody Clone ID 335234 (antibody, V domains shown)
VH: QLQLQESGPGLVKPSETLSLTCTVSGDSISSGDYYWGWIRQPPGKGLEWIGNIYYSGATYYNPSLKNRVTISVDTSKNQFSLKLSSVTAADTAVYYCTREDSSNWRSRGQGTLVTVSS
notes: as for B1
B27: anti-CD22 heavy chain-only antibody Clone ID 335244 (antibody, V domains shown)
VH: QLQLQESGPGLVKPSETLSLTCTVSGDSISSGDYYWGWIRQPPGKGLEWIGHIYYSGATYYNPSLKNRVTISVDTSRNQFSLNLSSVTAADTAVYYCTREDSSSWRSRGQGTLVTVSS
notes: as for B1
B28: anti-CD22 heavy chain-only antibody Clone ID 335233 (antibody, V domains shown)
VH: QLQLQESGPGLVKPSETLSLTCTVSGDSISSGDYYWGWIRQPPGKGLEWIGSIYYSGSTYYNPSLKSRVTISVDTSKNQFSLKLSSVTAADTAVYYCTREDSSNWRSRGQGTLVTVSS
notes: as for B1
B29: anti-CD22 heavy chain-only antibody Clone ID 335186 (antibody, V domains shown)
VH: QLQLQESGPGLVKPSETLSLTCTVSGGSISSSSYYWGWIRQPPGKGLEWIGSIYYSGSTYYNPSLKSRVTISVDTSKNQFSLKLSSVTAADTAVYYCTRDDSSNWRSRGQGTLVTVSS
notes: as for B1
B30: anti-CD22 heavy chain-only antibody Clone ID 335232 (antibody, V domains shown)
VH: QLQLQESGPGLVKPSETLSLTCTVSGDSISSGDYYWGWIRQPPGKGLEWIGHIYYSGATYYNPSLKNRVTISVDTSRNQSSLNLSSVTAADTAVYYCTREDSSNWRSRGQGTLVTVSS
notes: as for B1

target: T1, human CD22 (human, UniProt P20273 20-687, limits assumed); assay: ELISA protein and cell-binding assays
T1 construct: also called SIGLEC-2; human CD22 protein
T1 sequence (looked up): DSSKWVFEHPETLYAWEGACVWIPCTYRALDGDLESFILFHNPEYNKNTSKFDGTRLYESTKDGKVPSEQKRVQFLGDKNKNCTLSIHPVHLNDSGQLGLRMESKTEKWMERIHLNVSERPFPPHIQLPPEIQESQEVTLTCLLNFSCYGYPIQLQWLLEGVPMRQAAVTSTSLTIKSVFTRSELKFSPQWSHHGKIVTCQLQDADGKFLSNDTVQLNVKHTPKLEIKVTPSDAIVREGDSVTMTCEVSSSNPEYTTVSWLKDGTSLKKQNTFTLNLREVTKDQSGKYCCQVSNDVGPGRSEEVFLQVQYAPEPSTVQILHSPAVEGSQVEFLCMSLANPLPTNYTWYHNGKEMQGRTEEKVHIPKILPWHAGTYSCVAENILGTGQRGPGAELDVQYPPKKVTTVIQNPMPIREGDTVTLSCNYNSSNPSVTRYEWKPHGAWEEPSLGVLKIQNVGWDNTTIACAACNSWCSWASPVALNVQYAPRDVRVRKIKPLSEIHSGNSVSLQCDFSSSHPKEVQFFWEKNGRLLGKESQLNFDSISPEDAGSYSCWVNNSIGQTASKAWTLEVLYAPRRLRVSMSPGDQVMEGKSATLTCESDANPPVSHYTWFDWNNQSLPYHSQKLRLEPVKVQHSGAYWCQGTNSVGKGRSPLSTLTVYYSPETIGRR

Binding result, binds:
B1
B2
B3
B4
B5
B6
B7
B8
B9
B10
B11
B12
B13
B14
B15
B16
B17
B18
B19
B20
B21
B22
B23
B24
B25
B26
B27
B28
B29
B30
